Data on three substances can be found in patent US20020094546A1.

In test [1] the target is human beta PDGF receptor on human cells that carry both receptors (CCD1070 fibroblasts, MG-63 cells) (human) (UniProt P09619). Briefly: two-site ELISA for alpha-beta PDGF receptor heterodimers: capture with anti-beta PDGF receptor mAb, detection with polyclonal anti-alpha PDGF receptor; MG-63 lysates after PDGF DD 100 ng/mL, 10 min.
Test [2] shares this target. Briefly: two-site ELISA for alpha-beta PDGF receptor heterodimers: capture with anti-beta PDGF receptor mAb, detection with polyclonal anti-alpha PDGF receptor; MG-63 lysates after PDGF BB 10 ng/mL, 10 min.
Test [3] addresses beta PDGF receptor on HR5βR cells expressing only the beta receptor (UniProt P09619). As to the kind of experiment: cell-based or functional assay.
Test [4] deals with alpha PDGF receptor on 32D cells expressing only the alpha receptor (UniProt P16234). As to the kind of experiment: competition of unlabeled PDGF DD with ^125I-PDGF AA on 32D alpha receptor bearing cells.
alpha PDGF receptor on 32D cells expressing only the alpha receptor, sequence (P16234 24-1089): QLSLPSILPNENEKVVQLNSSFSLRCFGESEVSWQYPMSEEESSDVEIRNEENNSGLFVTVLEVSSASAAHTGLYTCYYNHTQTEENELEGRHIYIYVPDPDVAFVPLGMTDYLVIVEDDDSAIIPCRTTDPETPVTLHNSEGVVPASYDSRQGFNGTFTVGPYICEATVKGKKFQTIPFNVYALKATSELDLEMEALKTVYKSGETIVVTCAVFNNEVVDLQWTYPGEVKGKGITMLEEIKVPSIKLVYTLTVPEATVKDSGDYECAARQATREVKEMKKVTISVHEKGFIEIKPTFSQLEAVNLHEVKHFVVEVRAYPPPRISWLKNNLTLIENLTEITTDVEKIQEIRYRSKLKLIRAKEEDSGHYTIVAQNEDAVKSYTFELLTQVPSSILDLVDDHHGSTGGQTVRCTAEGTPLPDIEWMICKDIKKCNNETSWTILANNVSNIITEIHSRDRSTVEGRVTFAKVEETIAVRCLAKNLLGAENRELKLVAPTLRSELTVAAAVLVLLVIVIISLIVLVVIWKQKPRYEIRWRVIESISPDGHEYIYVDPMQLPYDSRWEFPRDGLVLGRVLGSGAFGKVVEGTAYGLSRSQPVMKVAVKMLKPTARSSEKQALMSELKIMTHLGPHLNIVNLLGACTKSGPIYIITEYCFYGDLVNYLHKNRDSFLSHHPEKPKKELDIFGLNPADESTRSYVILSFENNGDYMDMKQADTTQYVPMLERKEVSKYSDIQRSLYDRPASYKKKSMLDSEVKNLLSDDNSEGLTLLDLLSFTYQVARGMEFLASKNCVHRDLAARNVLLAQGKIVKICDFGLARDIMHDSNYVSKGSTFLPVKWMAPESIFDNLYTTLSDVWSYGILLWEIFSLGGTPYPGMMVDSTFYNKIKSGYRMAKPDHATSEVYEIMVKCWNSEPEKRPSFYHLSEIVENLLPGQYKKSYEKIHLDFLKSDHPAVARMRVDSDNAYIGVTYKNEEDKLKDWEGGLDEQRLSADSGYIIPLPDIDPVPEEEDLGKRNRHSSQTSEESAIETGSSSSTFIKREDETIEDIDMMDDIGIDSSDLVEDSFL
A further test has as its target PDGF AA (human) (UniProt P04085). As to the kind of experiment: cell-based or functional assay.
The target of test [5] is PDGF DD p35 (p35 form of the 30664188 gene product, dimeric C-terminal fragment) (human). As to the kind of experiment: cell-based or functional assay.

human beta PDGF receptor on human cells that carry both receptors (CCD1070 fibroblasts, MG-63 cells) (human), sequence (P09619 33-1106): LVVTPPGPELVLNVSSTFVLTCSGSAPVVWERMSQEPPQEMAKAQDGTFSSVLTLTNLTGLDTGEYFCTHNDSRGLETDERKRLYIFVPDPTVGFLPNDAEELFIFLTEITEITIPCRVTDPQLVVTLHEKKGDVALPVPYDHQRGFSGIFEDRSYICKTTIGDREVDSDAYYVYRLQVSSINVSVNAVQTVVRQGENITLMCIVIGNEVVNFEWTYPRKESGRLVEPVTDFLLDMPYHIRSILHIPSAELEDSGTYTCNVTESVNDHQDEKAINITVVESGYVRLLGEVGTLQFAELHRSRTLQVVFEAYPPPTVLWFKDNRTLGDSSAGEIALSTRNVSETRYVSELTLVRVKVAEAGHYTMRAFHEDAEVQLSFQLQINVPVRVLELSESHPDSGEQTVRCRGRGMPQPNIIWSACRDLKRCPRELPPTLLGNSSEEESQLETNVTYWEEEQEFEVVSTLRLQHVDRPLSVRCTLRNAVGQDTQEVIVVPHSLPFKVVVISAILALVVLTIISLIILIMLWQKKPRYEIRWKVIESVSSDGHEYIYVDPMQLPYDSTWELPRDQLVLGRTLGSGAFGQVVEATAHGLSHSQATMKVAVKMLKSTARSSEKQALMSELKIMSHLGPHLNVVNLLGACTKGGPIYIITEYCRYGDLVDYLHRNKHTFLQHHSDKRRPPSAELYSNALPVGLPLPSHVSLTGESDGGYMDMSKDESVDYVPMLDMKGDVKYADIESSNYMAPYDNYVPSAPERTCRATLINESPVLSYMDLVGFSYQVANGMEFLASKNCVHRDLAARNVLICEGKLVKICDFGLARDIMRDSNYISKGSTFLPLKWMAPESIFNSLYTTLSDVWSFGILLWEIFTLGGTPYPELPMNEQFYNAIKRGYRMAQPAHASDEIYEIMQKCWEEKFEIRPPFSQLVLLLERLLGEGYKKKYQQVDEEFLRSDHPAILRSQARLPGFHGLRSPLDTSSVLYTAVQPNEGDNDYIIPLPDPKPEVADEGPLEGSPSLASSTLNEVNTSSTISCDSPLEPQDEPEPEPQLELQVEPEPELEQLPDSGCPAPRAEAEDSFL
beta PDGF receptor on HR5βR cells expressing only the beta receptor, sequence (P09619 33-1106 limits assumed): as the sequence (P09619 33-1106) above

In the case of “human alpha PDGF receptor on human cells that carry both receptors (CCD1070 fibroblasts, MG-63 cells) (from UniProt P16234 24-1089)”, the Increase mODmin^-1 (650) (mODmin^-1 (650)) turned out to be 12.5 in test [1] and 2.3 in test [2].

“PDGF DD p35 (p35 form of the 30664188 gene product, dimeric C-terminal fragment) (ligand)” came in with a lowest concentration at which beta PDGF receptor phosphorylation was detected, HR5 cells in test [3] of 10 ng/mL. The substance also displayed a highest competitor concentration tested, no competition seen in test [4] above 250 nM.

For the substance “soluble beta PDGF receptor-IgFc fusion (R&D Systems) (from UniProt P09619 33-530)”, in the test with PDGF AA (human), the BrdU incorporation OD-blank, CCD1070 cells, AA + betaR Fc (AA alone 0.2705; + MOPC21 0.227) stood at 0.248 OD-blank and the BrdU incorporation OD-blank, NIH/3T3 cells, AA + betaR Fc (AA alone 0.931; + MOPC21 0.992) came out at 0.942 OD-blank. Also, in test [5], the BrdU incorporation OD-blank, CCD1070 cells, 3066 + betaR Fc (3066 alone 0.501; + MOPC21 0.456; starve 0.0303) is 0.324 OD-blank and the BrdU incorporation OD-blank, NIH/3T3 cells, 3066 + betaR Fc (3066 alone 0.902; + MOPC21 0.892; starve 0.0055) was 0.0365 OD-blank.
